Data on 1 molecule can be found in patent US20040058366, “Novel clock gene bmal2” (published 2004).

Data set [1] has as its target T1, cBMAL2-cCLOCK heterodimer (Gallus gallus, UniProt Q8QGQ7;Q8QGQ6 Q8QGQ7:1-622,Q8QGQ6:1-875).
T1 sequence 1: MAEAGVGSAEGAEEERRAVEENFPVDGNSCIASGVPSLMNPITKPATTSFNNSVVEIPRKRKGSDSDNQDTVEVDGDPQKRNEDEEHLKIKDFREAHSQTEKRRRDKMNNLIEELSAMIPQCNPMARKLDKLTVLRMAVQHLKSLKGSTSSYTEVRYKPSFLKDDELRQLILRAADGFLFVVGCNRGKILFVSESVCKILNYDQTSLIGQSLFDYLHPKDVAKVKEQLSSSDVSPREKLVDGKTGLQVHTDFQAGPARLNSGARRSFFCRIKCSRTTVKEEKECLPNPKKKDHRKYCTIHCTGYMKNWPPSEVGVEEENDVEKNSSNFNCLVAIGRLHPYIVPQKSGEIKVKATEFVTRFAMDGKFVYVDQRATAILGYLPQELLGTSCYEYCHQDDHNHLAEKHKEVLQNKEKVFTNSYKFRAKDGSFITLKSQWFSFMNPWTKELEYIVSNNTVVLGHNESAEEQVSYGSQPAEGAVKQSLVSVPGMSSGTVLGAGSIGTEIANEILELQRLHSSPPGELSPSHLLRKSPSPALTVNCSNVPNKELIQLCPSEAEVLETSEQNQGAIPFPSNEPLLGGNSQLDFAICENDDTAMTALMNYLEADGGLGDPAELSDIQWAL
T1 sequence 2: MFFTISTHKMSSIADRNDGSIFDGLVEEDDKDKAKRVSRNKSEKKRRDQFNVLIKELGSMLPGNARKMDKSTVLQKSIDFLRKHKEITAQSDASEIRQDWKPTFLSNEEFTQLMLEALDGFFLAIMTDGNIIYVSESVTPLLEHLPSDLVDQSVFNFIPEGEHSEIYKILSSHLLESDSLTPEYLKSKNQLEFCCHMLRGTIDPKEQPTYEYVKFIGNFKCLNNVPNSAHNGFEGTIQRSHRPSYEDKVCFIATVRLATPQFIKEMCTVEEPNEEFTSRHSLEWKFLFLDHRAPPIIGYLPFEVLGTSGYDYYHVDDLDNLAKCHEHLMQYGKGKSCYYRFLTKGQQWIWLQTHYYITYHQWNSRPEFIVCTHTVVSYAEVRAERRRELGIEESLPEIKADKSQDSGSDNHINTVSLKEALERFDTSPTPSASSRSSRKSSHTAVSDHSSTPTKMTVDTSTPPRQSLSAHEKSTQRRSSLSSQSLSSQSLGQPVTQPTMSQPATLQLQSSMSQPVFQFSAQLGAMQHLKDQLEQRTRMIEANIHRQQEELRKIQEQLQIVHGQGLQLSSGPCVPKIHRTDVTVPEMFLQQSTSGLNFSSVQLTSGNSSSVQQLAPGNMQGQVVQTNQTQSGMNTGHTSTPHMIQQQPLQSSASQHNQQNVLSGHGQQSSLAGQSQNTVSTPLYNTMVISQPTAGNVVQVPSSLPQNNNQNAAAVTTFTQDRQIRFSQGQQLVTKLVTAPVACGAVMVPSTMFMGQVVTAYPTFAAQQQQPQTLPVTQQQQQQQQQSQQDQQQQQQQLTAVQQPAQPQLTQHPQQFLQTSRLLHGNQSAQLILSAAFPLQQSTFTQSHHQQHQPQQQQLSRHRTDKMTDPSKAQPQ
The experiment in a line: EMSA; two or three specific complexes; 7.5 mM MgCl2, 100 mM KCl, pH 7.6, 23 C. As to conditions: tags: TNT-T7 coupled transcription/translation; label: 32P; within a 39 bp EcoRI fragment excised from pCR2.1. The text has this:
(§1) For preparation of the probe, oligonucleotides [cP2E1-S: 5′-GTGTCACACGTGAGGCTTA-3′ (Seq. ID No. 59) and cP2E1-AS: 5′-TAAGCCTCACGTGTGACAC-3′ (Seq. ID No. 60)] were synthesized that correspond to the E-box sequence and its flanking sequences within a putative promoter/enhancer region of cPer2 gene. These oligonucleotides synthesized were annealed together and subcloned into a pCR2.1 vector using TOPO-TA cloning kit (Invitrogen, Calif.), from which a 39 bp fragment was excised with a restriction enzyme EcoRI and used. The above-mentioned cBMAL1, cBMAL2 and cCLOCK were prepared by being transcribed and translated in vitro from an expression plasmid containing the cDNA of cBmal1, cBmal2 or cClock with the aid of TNT-T7 Quick Coupled Transcription/Translation System (Promega). […]
(§2) 5 μL each of the protein mixtures thus obtained (BMAL1+BMAL2, BMAL1+CLOCK, BMAL2+CLOCK) was added with 32 μL of buffer [25 mM Hepes-KOH (pH 7.6), 100 mM KCl, 0.1 mM EDTA, 10% (v/v) glycerol, 7.5 mM MgCl₂, 1 mM DTT and 1 μg denatured salmon sperm DNA] containing a ³²P-labeled probe (33 fmoles, 1.3×10⁵ cpm) andwas incubated for 20 min at 23° C. After the incubation, each mixture was separated by a 6% polyacrylamide gel electrophoresis and analyzed similarly as in Example 7 using a FLA2000 bioimage analyzer (FUJI PHOTO FILM). […]

For data set [2], the target named is cBMAL1-cCLOCK heterodimer (Gallus gallus, UniProt Q9I8T7;Q8QGQ6 Q9I8T7:1-633,Q8QGQ6:1-875). The data set is described as above. As to conditions: tags: TNT-T7 coupled transcription/translation; label: 32P; within a 39 bp EcoRI fragment excised from pCR2.1.
cBMAL1-cCLOCK heterodimer, sequence (Q9I8T7 whole entry, the tested form may be a part, one chain of several): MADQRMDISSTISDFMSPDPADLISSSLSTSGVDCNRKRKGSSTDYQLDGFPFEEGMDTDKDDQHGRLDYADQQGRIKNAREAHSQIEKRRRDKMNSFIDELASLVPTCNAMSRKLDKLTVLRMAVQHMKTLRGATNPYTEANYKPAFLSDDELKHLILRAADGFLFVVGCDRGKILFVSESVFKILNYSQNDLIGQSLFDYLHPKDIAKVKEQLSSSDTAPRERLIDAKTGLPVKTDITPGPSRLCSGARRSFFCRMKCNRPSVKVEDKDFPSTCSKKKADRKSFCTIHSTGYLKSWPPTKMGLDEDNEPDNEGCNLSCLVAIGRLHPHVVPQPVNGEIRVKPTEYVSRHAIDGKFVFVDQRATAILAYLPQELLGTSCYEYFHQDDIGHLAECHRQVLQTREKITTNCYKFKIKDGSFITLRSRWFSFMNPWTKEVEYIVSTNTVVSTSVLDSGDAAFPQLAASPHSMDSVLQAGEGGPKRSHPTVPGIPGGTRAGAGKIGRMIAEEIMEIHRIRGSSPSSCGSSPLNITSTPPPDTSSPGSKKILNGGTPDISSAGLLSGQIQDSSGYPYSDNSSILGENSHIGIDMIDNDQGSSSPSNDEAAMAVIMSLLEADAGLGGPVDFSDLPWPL
Text: as §1, §2

The next data set concerns the target T2, cBMAL2 (Gallus gallus, UniProt Q8QGQ7 SEQ:1-622).
T2 sequence: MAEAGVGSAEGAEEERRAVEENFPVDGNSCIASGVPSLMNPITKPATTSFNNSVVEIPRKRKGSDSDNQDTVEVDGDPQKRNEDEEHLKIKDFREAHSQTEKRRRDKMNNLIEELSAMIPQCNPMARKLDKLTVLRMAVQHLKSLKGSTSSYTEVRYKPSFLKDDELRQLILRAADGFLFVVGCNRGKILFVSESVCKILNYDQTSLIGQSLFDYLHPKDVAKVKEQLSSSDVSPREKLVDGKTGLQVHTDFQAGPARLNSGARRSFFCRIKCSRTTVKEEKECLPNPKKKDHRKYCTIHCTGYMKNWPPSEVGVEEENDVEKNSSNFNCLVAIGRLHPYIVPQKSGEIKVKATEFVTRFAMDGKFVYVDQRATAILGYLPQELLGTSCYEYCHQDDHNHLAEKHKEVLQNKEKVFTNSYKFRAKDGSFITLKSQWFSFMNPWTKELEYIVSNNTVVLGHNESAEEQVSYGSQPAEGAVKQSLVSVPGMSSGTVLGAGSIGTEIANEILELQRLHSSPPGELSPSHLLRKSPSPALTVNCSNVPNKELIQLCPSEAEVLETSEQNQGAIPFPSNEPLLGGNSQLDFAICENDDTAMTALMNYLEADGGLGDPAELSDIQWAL
Description: EMSA; no specific band with cBMAL2 alone. As to conditions: label: 32P; within a 39 bp EcoRI fragment excised from pCR2.1.
Text: as §1, §2

Another data set deals with T3, cCLOCK (Gallus gallus, UniProt Q8QGQ6 Q8QGQ6:1-875).
T3 sequence: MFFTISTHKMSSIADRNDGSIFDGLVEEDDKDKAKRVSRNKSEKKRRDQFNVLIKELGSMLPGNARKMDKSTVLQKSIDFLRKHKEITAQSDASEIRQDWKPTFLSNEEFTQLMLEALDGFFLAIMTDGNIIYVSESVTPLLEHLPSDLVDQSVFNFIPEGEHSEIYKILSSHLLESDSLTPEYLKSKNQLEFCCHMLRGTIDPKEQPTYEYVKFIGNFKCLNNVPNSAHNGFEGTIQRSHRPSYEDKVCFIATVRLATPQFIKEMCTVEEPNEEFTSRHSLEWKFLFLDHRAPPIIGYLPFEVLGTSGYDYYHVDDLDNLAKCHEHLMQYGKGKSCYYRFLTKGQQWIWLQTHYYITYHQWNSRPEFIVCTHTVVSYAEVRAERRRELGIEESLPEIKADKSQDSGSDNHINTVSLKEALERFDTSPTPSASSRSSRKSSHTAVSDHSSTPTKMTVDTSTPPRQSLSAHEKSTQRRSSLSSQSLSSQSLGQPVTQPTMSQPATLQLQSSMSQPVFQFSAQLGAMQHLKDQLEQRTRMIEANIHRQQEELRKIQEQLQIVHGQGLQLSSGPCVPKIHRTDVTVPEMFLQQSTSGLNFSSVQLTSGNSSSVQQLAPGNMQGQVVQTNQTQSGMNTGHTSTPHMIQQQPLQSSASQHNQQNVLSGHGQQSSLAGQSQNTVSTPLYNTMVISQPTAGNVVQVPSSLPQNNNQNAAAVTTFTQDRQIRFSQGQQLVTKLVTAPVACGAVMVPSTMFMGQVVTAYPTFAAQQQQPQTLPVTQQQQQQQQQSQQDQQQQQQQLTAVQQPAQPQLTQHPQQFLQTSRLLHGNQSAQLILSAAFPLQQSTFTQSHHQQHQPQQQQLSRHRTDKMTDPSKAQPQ
The experiment in a line: EMSA; no specific band with cCLOCK alone. As to conditions: label: 32P; within a 39 bp EcoRI fragment excised from pCR2.1.
Text: as §1, §2

In a further data set the target is cBMAL1 (Gallus gallus, UniProt Q9I8T7 Q9I8T7:1-633). The experiment in a line: EMSA; no specific band with cBMAL1 alone. As to conditions: label: 32P; within a 39 bp EcoRI fragment excised from pCR2.1.
cBMAL1, sequence (Q9I8T7 whole entry, the tested form may be a part, one chain of several): as the sequence (Q9I8T7 whole entry, the tested form may be a part, one chain of several) above
Text: as §1, §2

B1: cPer2 E-box probe (dsDNA)
DNA 1: GTGTCACACGTGAGGCTTA
DNA 2: TAAGCCTCACGTGTGACAC
With B1, the binding result was “binds” in data set [1]; “binds” in data set [2]; “no binding” with cBMAL2; “no binding” in the data set with cCLOCK; “no binding” in the data set with cBMAL1.
